Our source for the K half values is patent US20240383953.

The test system of data set [1] is HIV TAT cell-penetrating peptide (HIV). As to the kind of experiment: FP. The note with it: given as Ka in nM; n=1.1±0.1; not all DNA bound at 0.9 uM in EMSA, no FCCS bridging. For orientation: In EMSA bound probe runs differently from free probe, usually more slowly.
Data set [2] concerns T1, WR 1-3wRRK peptide (synthetic construct (human NANOG derived)).
T1 sequence: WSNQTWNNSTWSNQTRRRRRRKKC
As to the kind of experiment: FP. The note with it: given as Ka in nM; n=2.1±0.5; almost all DNA bound at 60 nM in EMSA.

In data set [3] the test system is WR 1-4wRK peptide (synthetic construct (human NANOG derived)). As to the kind of experiment: FP. The conditions noted are these: given as Ka in nM; cooperativity n=3.3±1.2.
Sequence of WR 1-4wRK peptide (synthetic construct (human NANOG derived)) (chain, as listed by the source): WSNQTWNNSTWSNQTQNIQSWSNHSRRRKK
Data set [4] has the same test system. As to the kind of experiment: EMSA. The note with it: 50% free DNA; DNA bridging by FCCS from 1 uM.

Take “GATA6 40 bp DNA (two NANOG cognate sites)”: the K half was 260 nM in data set [1], 180 nM in data set [2], 340 nM in data set [3] and 1000 nM in data set [4].
